According to the DeepSol protein solubility set:

Assay: soluble on expression in E. coli; label from the status in PepcDB or PDB records

Soluble on expression in E. coli, soluble:
MVSFKAGINLGGWISQYQVFSKEHFDTFITEKDIETIAEAGFDHVRLPFDYPIIESDDNVGEYKEDGLSYIDRCLEWCKKYNLGLVLDMHHAPGYRFQDFKTSTLFEDPNQQKRFVDIWRFLAKRYINEREHIAFELLNEVVEPDSTRWNKLMLECIKAIREIDSTMWLYIGGNNYNSPDELKNLADIDDDYIVYNFHFYNPFFFTHQKAHWSESAMAYNRTVKYPGQYEGIEEFVKNNPKYSFMMELNNLKLNKELLRKDLKPAIEFREKKKCKLYCGEFGVIAIADLESRIKWHEDYISLLEEYDIGGAVWNYKKMDFEIYNEDRKPVSQELVNILARRKT
MPKVYNSIVVDAPVERVWSRIRNFHDFSWAPSLIKSCKKVGGGGGYSVGARRLLNGEFLDTLIAYSEIERRIMYSMDEGPSPVSSGEIYNYVGNLHLLPVTIDDTTFVEWSGSWESASTEAVEYMNTVYRSLLADLAAEFTSESRRSEWIDQLEHHHHHH
SKPSKPFNVDDVLKFTFTGEKHHHHHH
MASFIDLSSADLSPLSGALHGPDRVARALLIQGGALVPPRPMLWPCAGDMLNGLHILGDLHAPDVDLLVAKRVVAGGSGAHLKLDDQLVYAEGAYPYYVQHWYQHDIARQAWDFDAPVTHRLDRAFVITHFNFVWGHWLTEMYPKLFVIRALNAAGITAPLLLPRTAPGYVARIVRMMLPDQEIVTYDPRDEAVEIGAALLPHMLNRNYVFHDFLRWNLEREALSFTKGGDADMLFVSRGGVRTAQSFRELENEAEIEGLAQEAGLTLVRPETLGWDQQARLFSRARLVAGEFGSGLHNALLSPQGCQVVSLNWLVEVQSRIGNFRRHDVGYILPADGQARLYSIEPQANQPFTIDPVEFRQKLAIAVDRAQARKAMAGWDDAPFPVDTPELRLLEHHHHHH
GSHMAAQSGNDAAEVALYERLLQLRVLPGASDVHDVRFVFGDDSRCWIEVAMHGDHVIGNSHPALDPKSRATLEHVLTVQGDLAAFLVVARDMLLASL

Soluble on expression in E. coli, not soluble:
MGSDKIHHHHHHMTLQFLGAAREVTGSCHLVTVAGKHLLLDCGLIQGGKADELRNHEPFVFDPQTIVAVVLSHAHIDHSGRLPLLVKAGFDGPIYTHKATAELCAIMLKDAAMLQVRDTERTNKKRAKHDLAPLEPLFTVEDAEQAISQFVSLEYGQVTRVIPHVDICLSDAGHILGSALVELWLGEGKSQKKIVFSGDLGRAGMPILQNPTLVDTADLVLMESTYGNRFHRSWTDTLAELKDIFAKTVNESQGNILLPAFSVGRAQELLYLFHLYAKEWDLGRWKICLDSPMAIEATRVYVNNYPLMDEDFKRFTRQHPGQHPLLSNVEFIQTTEESIALNEVHKGLIIIAGSGMCNGGRIRSHLEHNLWRSECDVIICGFQALGTPGRALVDGAKELTIHGNSVNVAAKLHTVGGLSAHADQAELLRWYRHFEEQPPLVLVHGEPEAQQGLVAVMNQDPKTKPKALAIATRGDMLDLTALPKLVWVTA
MQVHVIRRENRALYAGLLEKYFRIRHQIYVVERGWKELDRPDGREIDQFDTEDAVYLLGVDNDDIVAGMRMVPTTSPTLLSDVFPQLALAGPVRRPDAYELSRIFVVPRKRGEHGGPRAEAVIQAAAMEYGLSIGLSAFTIVLETWWLPRLVDQGWKAKPLGLPQDINGFSTTAVIVDVDDDAWVGICNRRSVPGPTLEWRGLEAIRRHSLPEFQVIS
MSQTLKQLAMAKMAGFRHKTVVVPEWEGVKVVLREPSGEAWLRWQEVVKGGGDDENVSVSEKAHRNLCADVVLFIDVLCDTDKQPVFSVDEEEQVREIYGPVHSRLLKQALDLINNADEAREKSQPPA
MDFLNDFDPSDDENNCKHQEKPTYLPFKPNFHEKYWYRNALKENQTATAITEIDLFRVADCYHNGDFECAENILTGLRESTKNNRTHEIMLIDSLLQCSIKKTSELSSPETSISLQFLSYYESILVDFGDQIQFLRTKAFLLSKLPFTSNYQKEFKNTMALLCQLCGSFENWQLFEIGSKYFTKLEMFGLKLKMKKVLKYEIDHSKGFIQEKLKKRLEKITKELNELEGELESNIIESIHSSINSHKDTTTVESTPNSEFRAHESRSKNKLIPVSDQPATIEDFFHRFPFLSF
MGSDKIHHHHHHVEGLIFQSSEFGTDEIYANMEEYIMQITRDNYSQYAQMVQQMFGKKASSNDPLAQCDYGNFSLRFKPVDINFTKPNWDTIMTKRDKPAMSEEEFDEAIKELARKEFATGKRDDDAYRKLCMQHGETVSPDRKAIYESSMKKTGGKMNAACMFWDSKGNKTLSYNPESRNWKAISTDEEFARARVFTSIYNDELARLKEEYGEKAKGNVSYSKIKVDISAERSKEKNNNEGNTIDLQI
MGHHHHHHSHMGSELIGRLAPRLGLAEPDMLRKAEEYLRLSRVKCVGLSARTTETSSAVMCLDLAASWMKCPLDRAYLIKLSGLNKETYQSCLKSFECLLGLNSNIGIRDLAVQFSCIEAVNMASKILKSYESSLPQTQQVDLDLSRPLFTSAALLSACKILKLKVDKNKMVATSGVKKAIFDRLCKQLEKIGQQVDREPGDVATPPRKRKKIVVEAPAKEMEKVEEMPHKPQKDEDLTQDYEEWKRKILENAASAQKATAE
MMSGAVEPVSVIFPQSTSSGVEVLYQQFSFGRYFNQIAAGVITGLIQAHQHSGHGPLRILEVGGGTGGTTAWLLPELRNVADVRYCFTDISALFSRRAEDKFSEYDFVEYAQFDLQKPASEQGFQAGHYDLIVAANVIHATQHVGQTLHNLRPLLKPGGALLMREITRPMRLFDFVFGPLVLPLHDEQARGGELFLSTAHWQQQCLESGFERLDWLP
MSTKRKIVVSSDSDDDMPFTQEKQKKAATPAKKRTKPVVLTDDDEEEENAPQKKTAPKRSRKQEKEESDITSDEDELVRGTDEKKKRKGGKKELPVGQKTLDYMFKPSSSSSKRDDPKKKVEKTLVNPADFFKNSPAPSASKLPKVAPKTVEKPKTPAKKPVEISPSTKENTKTKKVSDDEFVDSDDSFDTFTPITVKKKTPEKRKETPKKKELPSVKKEFPKKQSIPVKKEKETPQKKALSVKKDPPKVTSESSSSSQVSTSSVVFQPKPSGPPPALSWVDKYKPKRMGELVGQNGDKSPINKLLEWIKDWAKHNLGEGAKIKKPKPAPWMSSQDGTSFKAALLSGSPGVGKTTCAYMACQQLGLQLVEMNASDVRSKKHLEAKIGELSGSHQIEQFFGAKKCAPQDNQKVHHILIMDEVDGMSGNEDRAGISELIQIIKESKIPIICICNDRQHPKIRTLANYCYDLRFPKPRVETIRSRMMTICSQEKMKIGKEELDEIIELSGHDVRQTIYNLQMRSKGVGAKINQKDMAVDAFSAARRLLDSRTTLMEKQEMFFTDYGIMPLFVQDNYLNMKNEKHSPIQAIRGIRKAADFISLGDLIDRQIRGGGSWKLLNEQSMISAALPAIATGGHLKAMIQFPSWLGKNSTAGKRKRLLQQLVQHTHLKVSAGTHSFATDYAPMLRQKITKPLLEHEADGIPDVISTMTEYDLIKDDTEALTEIVAWPGKIDPASKILSKVKASLTRTLNKTGRMLPYSMDSVSKGKKRGVNSIGIEMDEEGNLVEKFEDEDGESDNEDNEEKTTDVVIKVRTGGGAGASKSARGGRGGGRARGGRGSKK
METATHYDLFIIGGGINGCGLARDAAGRGFKVGLAEMNDLASGTSSASTKLIHGGLRYLEYYEFRLVREALKEREIIWRMAPHIVRPLRFLLPYHKKLRPAWMLRFGLFIYDYLGNWNQKLWRSKTVNFSKSFCSILKEEYHKGFEYSDARVDDARLVIANARDAEKWGAVIKVRTEVLSLKSEEKKWVVILRDKLSGKESCVTASYVANMTGPWINHILSNVLDCKENPPVRLVRGSHILVPKLYAHDRAYIFQNGDGRILFSIPYQEEFTLLGTTDCGYQGDPADVHITDTEIDYICTAASEYFVQPVLRESIVWTYSGVRPLYDDGASKAQEITRDYVLKEMGTESTPRILNLYGGKITTYRKLAEDAMKFVEKALGKKGKPWTINSTLPGGDFPHNKLDTIENKIALLVPDLDAFTYRRLARSYGCEALMIFANGKADKGKNFGHGLYEVEVKWLMEKEWAKTCEDVLWRRSKLGLLFNKKEINALTAYMQKIQDNEQNS
LKPDPWADIETRFPVGSRHHARVRNFTNFGVFVEIEEGVDGLIHISDLSWTKKIKHPSEFTEVGADIEVQVIEIDKENRRLSLGHKQLEENPWDVFETVFTVGSIHEGTVIEVMDKGAVVSLPYGVEGFATPKHMVKEDGSQAVLEEKLPFKVIEFNKDAKRIIVSHSRVFEDEQKMAQREANAERKAEAKAAQKEAAAEAANPAQAVEKATLGDLGELAALKEKLSEN
